Laboratory results reported in patent US20260200990A1, “MODIFIED LONG PEPTIDES SUITABLE FOR USE IN IMMUNISATION” (ISABELLA PHARMA B.V., priority 2022, published 2026).
Ends that are not written are not given here.

What was measured:
[1] = Stability of peptide mixtures under long term and accelerated storage (UPLC); type: physicochemical; conditions: peptide in mixture of 6 peptides
Experimental: To examine the effect on stability of peptides that contain cystine (oxidized, C (C)) present in a mixture of 6 peptides, two examples of mixtures of both non-cysteine-containing (NCC1-6) and cystine-containing (SEQ ID NO: 1-6) peptides were assessed. Typical chromatograms of the two mixtures are depicted in FIG. 2. Both mixtures were placed on two different storage conditions, ‘long term storage condition’ (i.e. −20±5° C.) and ‘accelerated storage condition’ (i.e. 5±3° C.).
The purity, the level of impurities, and the quantification per peptide of both mixtures are determined by reversed phase rapid UPLC using a mobile phase gradient of ACN/IPA and water with TFA, and UV detection at λ=220 nm. The method quantifies main peaks and impurities in mixtures of peptides. The reporting threshold for the method is 0.10% a/a.
Both mixtures of six peptides were stored under the two conditions described and by using the analytical method as described. The stability was monitored. The quantity of each of the peptides present in the mix (assay values), the purity, and the individual impurities were measured at several timepoints over a period of 3 months. […] Furthermore, focussing on the individual impurities it is shown that no significant degradation has taken place as all levels remain constant and no new impurities have formed.

[2] = Stability of cysteine and cystine-containing peptides in 20% v/v DMSO in WFI (UPLC-UV-MS purity); type: physicochemical; conditions: room temperature
Experimental: To examine the effect on stability of a peptide that contains cysteine(s) (non-oxidized, C) or cystine(s) (oxidized, C (C)) in a formulation matrix (20% v/v DMSO in WFI (water for injection), four non-oxidized (SEQ ID NO: 1, 2, 3 and 4) and their oxidized, cystine-containing, peptides were manufactured and individually examined in 20% v/v DMSO (aq.)
Each peptide (2.0 mg) was dissolved in 2.0 ml of 0.09% TFA in H2O: acetonitrile (1:1, v/v). Aliquots of 200 μL were transferred to a 1 mL amber vial and then freeze dried overnight. An aliquot (0.2 mg) was then redissolved in 20% v/v DMSO in WFI (1 mL). After swirling for 2 minutes, a sample was analyzed by UPLC-UV-MS. The remainder of the sample was stored at room temperature and analyzed at different time intervals (1 h, 2 h, 3 h, 4 h). The identity and purity of the purified peptides were then determined by UPLC-UV-MS on a Waters Acquity UPLC/TQD system using an C18 Waters Acquity BEH130 analytical column (1.7 μm particle size, 2.1×150 mm, flow 0.4 mL/min) with a linear gradient (5% B to 95% B, linear gradient in 10 min). The absorbance was measured at 220 nm.
MassLynx v4.1 was used to integrate the individual peaks of the chromatogram in the region of the observed peptide-derived signals. The following ApexTrack peak detection parameters were used for integration: peak-to-peak baseline noise was set at automatic, peak width at 5% height was set at automatic, baseline start threshold of 0.05% and baseline end threshold of 0.05%. The detect shoulder function was turned on. The following response thresholds were set: relative height of 0.20 and relative area of 0.10. After the peak of the desired peptide was identified by MS, the corresponding integral of the peak in the UV chromatogram is reported in Table 2 as percentage of the total integrated peaks, purity (% a/a).
Purity of the non-oxidized and oxidized peptide composition over time was evaluated over 4 h. Additional mass adducts, consistent with the formation of intermolecular or intramolecular disulfide bonds, increased over time in all spectra of cysteine-containing peptides compared to cystine-containing peptides. The purity of the non-oxidized peptides set forth in SEQ ID NO: 1, 3 and 4 declined from >90% a/a at to less than 80% a/a with the lowest stability observed for SEQ ID NO: 1 with a purity of 64% a/a after 4 h. For the cystine-containing peptide analogs, the purity remained >90% a/a after 4 h.

Sequence | Assay (net peptide content) (mg/vial) ([1]; Initial) | Assay (net peptide content) (mg/vial) ([1]; Storage at 5 ± 3° C., T1M) | Assay (net peptide content) (mg/vial) ([1]; Storage at 5 ± 3° C., T2M) | Assay (net peptide content) (mg/vial) ([1]; Storage at 5 ± 3° C., T3M) | Assay (net peptide content) (mg/vial) ([1]; Storage at −20 ± 5° C., T2M) | Assay (net peptide content) (mg/vial) ([1]; Storage at −20 ± 5° C., T3M) | Purity (% a/a) ([2]; Time 0 h) | Purity (% a/a) ([2]; Time 1 h) | Purity (% a/a) ([2]; Time 2 h) | Purity (% a/a) ([2]; Time 3 h) | Purity (% a/a) ([2]; Time 4 h)
HLSLRGLPVCAFSSAGPCALRFTSA [Cystine(C(C)) containing SEQ ID NO: 1] | 0.24 mg/vial | 0.23 mg/vial | 0.24 mg/vial | 0.23 mg/vial | 0.24 mg/vial | 0.24 mg/vial | 97.14 % a/a | 96.67 % a/a | 95.10 % a/a | 95.97 % a/a | 95.74 % a/a
VLSRKYTSFPWLLGCTANWILRGTSFVYVPSALNPA [Cystine(C(C)) containing SEQ ID NO: 3] (VLSRKYTSFPWLLGC(Cys)TANWILRGTSFVYVPSALNPA) [HBV Pol fragment SLP with cysteinylated cysteine] | 0.24 mg/vial | 0.23 mg/vial | 0.24 mg/vial | 0.25 mg/vial | 0.24 mg/vial | 0.25 mg/vial | 97.44 % a/a | 97.48 % a/a | 97.28 % a/a | 97.30 % a/a | 97.34 % a/a
